Molecular target: anti-dnaJ antibodies in sera obtained from patients with early stage RA
Assay: inhibition ELISA; rdnaJ-coated plates, sera 1:100 preincubated with the peptide, goat anti-human IgG detection

B1: wild-type dnaJ peptide … (peptide)
peptide: QKRAAYDQYGHAAFE
For B1, the inhibition of antibody binding to rdnaJ, fold against control sera was 3 fold.

Reference: EP0762881B1
